Laboratory results published in patent publication US20240270874A1 (JIANGSU HENGRUI PHARMACEUTICALS, published 2024).
Where two headings read alike, the source gives them in different places.

What was measured:
[1] = molecular target: T1, human KLB on CHOK1-hKLB cells (human, UniProt Q86Z14 1-1044); test: flow cytometry on CHOK1-hKLB cells
T1 construct: whole, on cells; also called human KLB antigen; β-Klotho
T1 sequence (looked up): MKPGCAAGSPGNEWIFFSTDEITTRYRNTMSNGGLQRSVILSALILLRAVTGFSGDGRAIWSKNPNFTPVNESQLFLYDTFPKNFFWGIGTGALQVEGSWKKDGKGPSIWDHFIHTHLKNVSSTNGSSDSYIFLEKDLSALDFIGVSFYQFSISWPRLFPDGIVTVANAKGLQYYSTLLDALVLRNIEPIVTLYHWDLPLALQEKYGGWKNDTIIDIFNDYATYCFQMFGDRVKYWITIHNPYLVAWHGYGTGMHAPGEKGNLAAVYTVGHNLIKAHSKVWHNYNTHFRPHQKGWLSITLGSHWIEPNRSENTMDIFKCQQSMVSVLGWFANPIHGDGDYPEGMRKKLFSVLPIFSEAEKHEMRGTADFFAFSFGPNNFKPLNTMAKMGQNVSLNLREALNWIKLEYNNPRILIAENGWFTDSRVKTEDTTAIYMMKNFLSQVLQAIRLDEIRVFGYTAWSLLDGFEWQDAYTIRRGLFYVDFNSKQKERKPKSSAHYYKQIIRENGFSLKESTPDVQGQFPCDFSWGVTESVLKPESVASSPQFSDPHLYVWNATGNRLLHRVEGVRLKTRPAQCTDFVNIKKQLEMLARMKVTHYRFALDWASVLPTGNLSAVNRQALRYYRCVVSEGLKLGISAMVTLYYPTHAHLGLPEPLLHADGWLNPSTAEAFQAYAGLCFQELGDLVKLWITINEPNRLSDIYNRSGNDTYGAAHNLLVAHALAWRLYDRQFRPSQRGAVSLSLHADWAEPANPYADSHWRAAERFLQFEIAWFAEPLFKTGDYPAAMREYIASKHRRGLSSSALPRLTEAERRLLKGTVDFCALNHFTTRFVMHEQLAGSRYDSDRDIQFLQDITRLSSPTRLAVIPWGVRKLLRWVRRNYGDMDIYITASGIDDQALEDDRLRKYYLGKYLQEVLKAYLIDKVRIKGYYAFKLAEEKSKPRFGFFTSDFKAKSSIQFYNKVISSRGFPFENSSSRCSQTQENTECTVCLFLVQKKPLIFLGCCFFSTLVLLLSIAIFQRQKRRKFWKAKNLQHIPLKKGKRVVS
Protocol: (§1) The binding ability of the antibodies for CHOK1 cell strains CHOK1-hKLB and CHOK1-cynoKLB overexpressing human KLB and monkey KLB (see Example 1 for specific preparation procedure), respectively, was detected by flow cytometry. The specific procedure was as follows: the above cells were cultured in 10% FBS-containing IMDM medium and incubated in an incubator at 37° C. and 5% CO₂ for 2 days. The cells were then added to a cell plate at 1×10⁵ cells per well, centrifuged at 300 g for 5 min, and then washed once with 1% BSA. The antibody diluted in gradient was added to the cell plate at 100 μL per well, and the mixture was incubated at 4° C. for 1 h and washed once with 1% BSA. The diluted (1:400) APC-goat anti-human IgG Fc fluorescent secondary antibody was added at 100 μL per well, and the resulting mixture was incubated at 4° C. for 1 h. The plate was washed three times with 1% BSA, PBS was added at 100 μL per well, and the plate was read.

[2] = molecular target: T1, human KLB on CHOK1-hKLB cells; test: flow cytometry on CHOK1-hKLB cells; remark: listed apart in the source
Description: The above heavy chain variable regions were fused to the heavy chain constant region (set forth in SEQ ID NO: 22) and the light chain variable regions were fused to the light chain constant region (set forth in SEQ ID NO: 23) to construct anti-KLB antibodies, and the binding activity of the obtained antibodies for CHOK1-hKLB was detected (see Test Example 2 of the present disclosure for the experimental method).
as §1

[3] = molecular target: human KLB&FGFR1c complex on cells (human, UniProt Q86Z14 1-1044; P11362 22-822); test: cell-based or functional assay
human KLB&FGFR1c complex on cells, sequence (P11362 22-822, one chain of several): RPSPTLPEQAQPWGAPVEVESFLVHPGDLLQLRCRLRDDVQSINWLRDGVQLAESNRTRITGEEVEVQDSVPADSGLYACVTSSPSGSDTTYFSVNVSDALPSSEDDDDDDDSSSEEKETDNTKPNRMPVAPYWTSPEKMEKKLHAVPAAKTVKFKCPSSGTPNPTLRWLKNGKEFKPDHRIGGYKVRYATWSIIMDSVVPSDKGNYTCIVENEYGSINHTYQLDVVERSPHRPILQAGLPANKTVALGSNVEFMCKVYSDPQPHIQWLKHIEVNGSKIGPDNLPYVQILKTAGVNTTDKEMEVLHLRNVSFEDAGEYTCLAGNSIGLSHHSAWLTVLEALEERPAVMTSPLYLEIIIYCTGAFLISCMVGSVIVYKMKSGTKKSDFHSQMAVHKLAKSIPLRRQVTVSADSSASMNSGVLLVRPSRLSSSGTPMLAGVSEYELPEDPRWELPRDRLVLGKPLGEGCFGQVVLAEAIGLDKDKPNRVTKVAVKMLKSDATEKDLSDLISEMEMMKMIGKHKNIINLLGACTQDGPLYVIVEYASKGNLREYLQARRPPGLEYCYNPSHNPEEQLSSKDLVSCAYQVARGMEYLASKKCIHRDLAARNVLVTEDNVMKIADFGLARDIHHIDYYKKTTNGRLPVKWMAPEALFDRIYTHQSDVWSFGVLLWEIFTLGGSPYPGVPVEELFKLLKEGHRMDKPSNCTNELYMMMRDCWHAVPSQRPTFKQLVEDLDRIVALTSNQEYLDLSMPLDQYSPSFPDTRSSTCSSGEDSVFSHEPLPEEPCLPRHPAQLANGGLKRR

[4] = molecular target: human KLB & human FGFR3c on L6 cells (human, UniProt Q86Z14 1-1044; P22607 23-806); test: cell-based or functional assay
human KLB & human FGFR3c on L6 cells, sequence (P22607 23-806, chain 2 of 2, one chain of several): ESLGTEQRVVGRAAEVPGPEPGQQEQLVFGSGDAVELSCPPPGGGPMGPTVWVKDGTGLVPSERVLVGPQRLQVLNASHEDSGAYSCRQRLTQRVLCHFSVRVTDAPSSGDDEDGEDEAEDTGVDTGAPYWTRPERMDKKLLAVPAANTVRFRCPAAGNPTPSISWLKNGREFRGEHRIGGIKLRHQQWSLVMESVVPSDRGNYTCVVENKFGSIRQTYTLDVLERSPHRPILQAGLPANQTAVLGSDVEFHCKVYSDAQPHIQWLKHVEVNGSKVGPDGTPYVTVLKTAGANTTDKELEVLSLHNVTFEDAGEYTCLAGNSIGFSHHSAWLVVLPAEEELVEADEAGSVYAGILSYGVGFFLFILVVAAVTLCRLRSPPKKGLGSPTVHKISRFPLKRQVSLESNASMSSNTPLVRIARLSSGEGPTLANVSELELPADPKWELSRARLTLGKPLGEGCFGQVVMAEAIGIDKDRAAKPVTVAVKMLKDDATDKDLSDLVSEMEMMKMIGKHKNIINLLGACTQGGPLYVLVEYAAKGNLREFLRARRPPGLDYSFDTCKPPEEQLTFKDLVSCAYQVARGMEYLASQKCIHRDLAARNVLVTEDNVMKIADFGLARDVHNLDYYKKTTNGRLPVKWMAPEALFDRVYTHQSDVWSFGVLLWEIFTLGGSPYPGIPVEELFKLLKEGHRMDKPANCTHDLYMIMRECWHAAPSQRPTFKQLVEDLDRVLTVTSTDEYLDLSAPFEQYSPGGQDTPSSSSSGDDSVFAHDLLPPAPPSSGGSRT

[5] = molecular target: human KLB & human FGFR4 on L6 cells (human, UniProt Q86Z14 1-1044; P22455 22-802); test: cell-based or functional assay
human KLB & human FGFR4 on L6 cells, sequence (P22455 22-802, chain 2 of 2, one chain of several): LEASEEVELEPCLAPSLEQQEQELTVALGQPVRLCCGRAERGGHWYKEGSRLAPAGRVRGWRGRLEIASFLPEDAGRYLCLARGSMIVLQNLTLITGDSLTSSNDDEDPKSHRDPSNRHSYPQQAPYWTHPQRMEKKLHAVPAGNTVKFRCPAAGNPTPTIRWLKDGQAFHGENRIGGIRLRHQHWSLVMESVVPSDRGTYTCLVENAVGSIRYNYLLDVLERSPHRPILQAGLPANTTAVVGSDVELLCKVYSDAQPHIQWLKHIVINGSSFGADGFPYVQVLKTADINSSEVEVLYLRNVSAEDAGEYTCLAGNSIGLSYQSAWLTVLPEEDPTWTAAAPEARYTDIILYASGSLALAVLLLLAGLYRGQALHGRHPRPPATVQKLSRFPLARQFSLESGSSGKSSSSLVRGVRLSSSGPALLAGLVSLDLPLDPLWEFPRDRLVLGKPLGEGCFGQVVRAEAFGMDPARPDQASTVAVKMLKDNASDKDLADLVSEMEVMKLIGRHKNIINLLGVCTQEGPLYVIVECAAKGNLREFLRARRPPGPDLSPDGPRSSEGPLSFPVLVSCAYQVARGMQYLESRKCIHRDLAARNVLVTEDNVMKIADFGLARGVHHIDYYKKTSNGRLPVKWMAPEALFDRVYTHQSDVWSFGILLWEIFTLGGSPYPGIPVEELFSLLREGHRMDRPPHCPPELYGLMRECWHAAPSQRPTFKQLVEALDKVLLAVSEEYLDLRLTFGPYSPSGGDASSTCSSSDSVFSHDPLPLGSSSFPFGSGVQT

[6] = molecular target: T2, cynomolgus monkey KLB on CHOK1-cynoKLB cells (cynomolgus monkey, UniProt A0A2K5WB58 1-1044); test: flow cytometry on CHOK1-cynoKLB cells
T2 construct: whole, on cells; also called monkey KLB antigen
T2 sequence: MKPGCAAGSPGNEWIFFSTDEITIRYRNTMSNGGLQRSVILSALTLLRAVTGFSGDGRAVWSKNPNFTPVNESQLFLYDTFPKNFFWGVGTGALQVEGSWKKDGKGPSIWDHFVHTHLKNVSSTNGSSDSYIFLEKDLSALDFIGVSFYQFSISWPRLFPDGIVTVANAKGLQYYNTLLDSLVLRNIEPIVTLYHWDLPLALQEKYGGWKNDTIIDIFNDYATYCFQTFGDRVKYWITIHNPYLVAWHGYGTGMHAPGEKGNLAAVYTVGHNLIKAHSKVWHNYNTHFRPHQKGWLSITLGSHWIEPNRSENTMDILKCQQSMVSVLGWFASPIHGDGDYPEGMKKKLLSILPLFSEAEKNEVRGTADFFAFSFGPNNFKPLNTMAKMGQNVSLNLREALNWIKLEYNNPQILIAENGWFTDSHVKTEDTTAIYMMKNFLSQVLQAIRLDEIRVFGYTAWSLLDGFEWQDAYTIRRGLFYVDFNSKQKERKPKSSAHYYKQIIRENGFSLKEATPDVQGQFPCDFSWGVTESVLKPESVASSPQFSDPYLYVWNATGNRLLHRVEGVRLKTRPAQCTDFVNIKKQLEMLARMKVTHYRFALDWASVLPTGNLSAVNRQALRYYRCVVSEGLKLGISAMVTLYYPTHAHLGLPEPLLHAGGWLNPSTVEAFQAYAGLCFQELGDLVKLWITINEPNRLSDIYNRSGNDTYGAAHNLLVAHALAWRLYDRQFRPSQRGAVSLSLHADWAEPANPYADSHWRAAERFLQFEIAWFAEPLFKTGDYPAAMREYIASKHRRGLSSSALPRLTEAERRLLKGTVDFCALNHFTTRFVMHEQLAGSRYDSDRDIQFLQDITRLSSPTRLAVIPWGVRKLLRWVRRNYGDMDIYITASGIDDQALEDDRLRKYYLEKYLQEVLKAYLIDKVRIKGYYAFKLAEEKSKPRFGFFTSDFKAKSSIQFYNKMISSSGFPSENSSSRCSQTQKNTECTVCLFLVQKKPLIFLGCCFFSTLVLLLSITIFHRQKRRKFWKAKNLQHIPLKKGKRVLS
Protocol: as §1

B1: hAb99-13 (antibody, human IgG1, kappa, L234A L235A, V domains shown)
VH: EVQLVQSGAEVKKPGASVKVSCKASGYTFTNYGINWVRQAPGQRLEWMGYIYIGNVDIEYNAKFKGRVTITSDTSASTAYMELSSLRSEDTAVYYCARGRGLGHFDVWGQGTTVTVSS
VL: DIQMTQSPSSLSASVGDRVTITCRASKSISKFLAWFQQKPGKTNKLLIYSGSTLQSGVPSRFSGSGSGTDFTLTISSLQPEDFATYYCQQHNEYPWTFGGGTKVEIKR
notes: human IgG1 (L234A, L235A) / kappa
- EC50 [1]: 0.44 nM
- EC50 [2]: 0.32 nM
- Activation fold, SRE-Luc2P reporter in HEK293T-hKLB&hFGFR1c cells [3]: 3.57 fold
- EC50 (nM), SRE-Luc2P reporter in HEK293T-hKLB&hFGFR1c cells [3]: 2.62 nM
- Activation fold, pERK/total ERK in L6-hKLB&hFGFR3c cells [4]: 4.95 fold
- Activation fold, pERK/total ERK in L6-hKLB&hFGFR4 cells [5]: 1.54 fold
- EC50 [6]: 0.27 nM

B2: hAb18-8 (antibody, human IgG1, kappa, L234A L235A, V domains shown)
VH: EVQLVQSGAEVKKPGASVKVSCKASGYTFTDYAMHWVRQAPGQRLEWMGVISTYSGTTNYNQNFKGRVTITVDKSASTAYMELSSLRSEDTAVYYCARSGPLDYWGQGTTVTVSS
VL: ENVLTQSPDFQSVTPKEKVTITCRATSSVSSSYLHWYQQKPDQSPKLWIYSTSQLASGVPSRFSGSGSGTDYTLTINSLEAEDAATYYCQQYSGYPLTFGQGTKLEIKR
notes: as for B1
- EC50 [1]: 1.93 nM
- EC50 [2]: 2.5 nM
- Activation fold, SRE-Luc2P reporter in HEK293T-hKLB&hFGFR1c cells [3]: 2.29 fold
- EC50 (nM), SRE-Luc2P reporter in HEK293T-hKLB&hFGFR1c cells [3]: 5.35 nM
- Activation fold, pERK/total ERK in L6-hKLB&hFGFR3c cells [4]: 1.41 fold
- Activation fold, pERK/total ERK in L6-hKLB&hFGFR4 cells [5]: 0.98 fold
- EC50 [6]: 1.9 nM

B3: hAb-23 (antibody, human IgG1, kappa, L234A L235A, V domains shown)
VH: QVQLVQSGAEVKKPGSSVKVSCKASGGTFSSYAISWVRQAPGQGLEWMGGIIPIFGTANYAQKFQGRVTITADESTSTAYMELSSLRSEDTAVYYCARELVSYYYGMDVWGQGTMVTVSS
VL: not shown
notes: from a human natural phage library; human IgG1 (L234A, L235A) / kappa; also called fully human antibody hAb-23
- EC50 [1]: 0.39 nM
- Activation fold, pERK/total ERK in L6-hKLB&hFGFR3c cells [4]: 1.08 fold
- Activation fold, pERK/total ERK in L6-hKLB&hFGFR4 cells [5]: 0.91 fold
- EC50 [6]: 0.13 nM
